Results reported in PMC7641332 (Nucleic Acids Research, 2020).

T1: 2× MBP-BRCA2OB2-His10 (human, UniProt P51587 2780-3080)
T1 sequence: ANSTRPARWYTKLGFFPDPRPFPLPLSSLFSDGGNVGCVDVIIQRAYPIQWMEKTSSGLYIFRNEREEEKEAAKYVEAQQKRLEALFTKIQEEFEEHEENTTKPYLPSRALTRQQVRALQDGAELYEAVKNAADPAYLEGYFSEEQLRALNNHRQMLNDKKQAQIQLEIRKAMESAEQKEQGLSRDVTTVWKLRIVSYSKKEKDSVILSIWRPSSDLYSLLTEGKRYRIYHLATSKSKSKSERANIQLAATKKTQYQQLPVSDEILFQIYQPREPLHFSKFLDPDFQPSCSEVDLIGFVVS

B1: GST-BRCA2NT-HA-His10 (domain or fragment)
chain: MPIGSKERPTFFEIFKTRCNKADLGPISLNWFEELSSEAPPYNSEPAEESEHKNNNYEPNLFKTPQRKPSYNQLASTPIIFKEQGLTLPLYQSPVKELDKFKLDLGRNVPNSRHKSLRTVKTKMDQADDVSCPLLNSCLSESPVVLQCTHVTPQRDKSVVCGSLFHTPKFVKGRQTPKHISESLGAEVDPDMSWSSSLATPPTLSSTVLIVRNEEASETVFPHDTTANVKSYFSNHDESLKKNDRFIASVTDSENTNQREAASHGFGKTSGNSFKVNSCKDHIGKSMPNVLEDEVYETVVDTSEEDSFSLCFSKCRTKNLQKVRTSKTRKKIFHEANADECEKSKNQVKEKYSFVSEVEPNDTDPLDSNVANQKPFESGSDKISKEVVPSLACEWSQLTLSGLNGAQMEKIPLLHISSCDQNISEKDLLDTENKRKKDFLTSENSLPRISSLPKSEKPLNEETVVNKRDEEQHLESHTDCILAVKQAISGTSPVASSFQGIKKSIFRIRESPKETFNASFSGHMTDPNFKKETEASESGLEIHTVCSQKEDSLCPNLIDNGSWPATTTQNSVALKNAGLISTLKKKTNKFIYAIHDETSYKGKKIPKDQKSELINCSAQFEANAFEAPLTFANADSGLLHSSVKRSCSQNDSEEPTLSLTSSFGTILRKCSRNETCSNNTVISQDLDYKEAKCNKEKLQLFITPEADSLSCLQE
B2: 2× MBP-BRCA2NT-FLAG-His10 (domain or fragment)
chain: B1 chain
B3: GST-BRCA2N7 (domain or fragment)
chain: VTDSENTNQREAASHGFGKTSGNSFKVNSCKDHIGKSMPNVLEDEVYETVVDTSEEDSFSLCFSKCRTKNLQKVRTSKTRKKIFHEANADECEKSKNQVKEKYSFVSEVEPNDTDPLDSNV
B4: GST-BRCA2N9 (domain or fragment)
chain: ILAVKQAISGTSPVASSFQGIKKSIFRIRESPKETFNASFSGHMTDPNFKKETEASESGLEIHTVCSQKEDSLCPNLIDNGSWPATTTQNSVALKNAGLISTLKKKTNKFIYAIHDETSYKGKKIPKDQKSELINCSAQFEANAFEAPLTFANADSGLLHSSVKRSCSQNDSEEPTLSLTSSFGTILRKCSRNETCSNNTVISQDLDYKEAKCNKEKLQLFITPEADSLSCLQE
B5: 2× MBP-BRCA2CT-FLAG-His10 (domain or fragment)
chain: QEKSLKASKSTPDGTIKDRRLFMHHVSLEPITCVPFRTTKERQEIQNPNFTAPGQEFLSKSHLYEHLTLEKSSSNLAVSGHPFYQVSATRNEKMRHLITTGRPTKVFVPPFKTKSHFHRVEQCVRNINLEENRQKQNIDGHGSDDSKNKINDNEIHQFNKNNSNQAVAVTFTKCEEEPLDLITSLQNARDIQDMRIKKKQRQRVFPQPGSLYLAKTSTLPRISLKAAVGGQVPSACSHKQLYTYGVSKHCIKINSKNAESFQFHTEDYFGKESLWTGKGIQLADGGWLIPSNDGKAGKEEFYRALCDTPGVDPKLISRIWVYNHYRWIIWKLAAMECAFPKEFANRCLSPERVLLQLKYRYDTEIDRSRRSAIKKIMERDDTAAKTLVLCVSDIISLSANISETSSNKTSSADTQKVAIIELTDGWYAVKAQLDPPLLAVLKNGRLTVGQKIILHGAELVGSPDACTPLEAPESLMLKISANSTRPARWYTKLGFFPDPRPFPLPLSSLFSDGGNVGCVDVIIQRAYPIQWMEKTSSGLYIFRNEREEEKEAAKYVEAQQKRLEALFTKIQEEFEEHEENTTKPYLPSRALTRQQVRALQDGAELYEAVKNAADPAYLEGYFSEEQLRALNNHRQMLNDKKQAQIQLEIRKAMESAEQKEQGLSRDVTTVWKLRIVSYSKKEKDSVILSIWRPSSDLYSLLTEGKRYRIYHLATSKSKSKSERANIQLAATKKTQYQQLPVSDEILFQIYQPREPLHFSKFLDPDFQPSCSEVDLIGFVVSVVKKTGLAPFVYLSDECYNLLAIKFWIDLNEDIIKPHMLIAASNLQWRPESKSGLLTLFAGDFSVFSASPKEGHFQETFNKMKNTVENIDILCNEAENKLMHILHANDPKWSTPTKDCTSGPYTAQIIPGTGNKLLMSSPNCEIYYQSPLSLCMAKRKSVSTPVSAQMTSKSCKGEKEIDDQKNCKKRRALDFLSRLPLPPPVSPICTFVSPAAQKAFQPPRSCGTKYETPIKKKELNSPQMTPFKKFNEISLLESNSIADEELALINTQALLSGSTGEKQFISVSESTRTAPTSSEDYLRLKRRCTTSLIKEQESSQASTEECEKNKQDTITTKKYI

How the values were obtained:
Experiment in all cases: pull-down
[1] = molecular target: B5
GST-BRCA2NT-HA-His10 = molecular target: B1
[2] = molecular target: B2
2× MBP-BRCA2OB2-His10 = molecular target: T1, 2× MBP-BRCA2OB2-His10

B1
binding result [1]: binds

B2
binding result (GST-BRCA2NT-HA-His10): binds

B3
binding result [2]: binds

B4
binding result [2]: binds
binding result (2× MBP-BRCA2OB2-His10): binds

B5
fold stronger than the interaction of MBP-BRCA2NT with GST-BRCA2NT (GST-BRCA2NT-HA-His10): ~6 fold
